Assay results published in the supplement of paper PMC12042874.
± gives the uncertainty stated by the source.

What was measured:
[1] = amyloid nucleation score (Sup35N fusion, yeast selection) (log enrichment); library NNK2; higher = more nucleation; inactive = no reads after selection
Outline: (§1)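 Psi-negative yeast expressed Sup35N fused to peptides of 20 random codons. They were induced 24 hours with 100 μM copper sulfate, grown 7 days at 30°C without adenine and uracil, and their plasmid inserts from input and output were Illumina-sequenced. The nucleation score is the DiMSum log enrichment of output over input reads, centred on the mode score of non-aggregating sequences. Sequences with under 100 input reads were excluded.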

[2] = amyloid nucleation score (Sup35N fusion, yeast selection) (log enrichment); library NNK3; higher = more nucleation; inactive = no reads after selection
Outline: as §1

Substance	amyloid nucleation score [1]	amyloid nucleation score [2]
AAKTNCDC	-0.01 ± 1	
AALHNYAVSFCFMSPMKQKT	-0.542 ± 0.76	
AALNDNTSL	5.71 ± 0.079	
AAVFMLQRLDFINRMASASF	3.72 ± 0.055	
ACCLIAIWRPI	5.47 ± 0.085	
YFLRVNGSCANIDDHGLFSW		inactive
YFLSN		inactive
YFNLITAYKVLSAHGRTLWR		inactive
YFQLLVSLVSVFH		inactive
YFRNHSRVDDLDGGRRDVFR		inactive
YFRQFSVYYLFFNLMYILHA		inactive
YFRVAFCTHGFIMARCAFSS		inactive
YFRYIWEHMLVYGRVAKDDP		inactive
YFSRLTYCSRNSSCWILYCF		inactive
YFSWLSLHVFVSGFVRIVCR		inactive
YFVYEG		inactive
YFYFDFNYNMYGVKALLVLC		inactive
YGCFVPY		inactive
YGEFDTLQW		inactive
YGMWHHYFGDLTLSSRLNHV		inactive
YGNHFSNNDGSIFER		inactive
YGPSLQNSWDPFPRASSPVI		inactive
YGRRKYSWAVWICKHIGAYG		inactive

Substance	amyloid nucleation score [1]	amyloid nucleation score [2]
YGSIRLNMYWFVCVCTISWI		0.661 ± 0.13
YGSSHYPYNSY		inactive
YGTNQMTLPKCRYWGFYREE		-0.149 ± 0.7
YGVWCSYKFVYSCDPYDSAG		0.557 ± 0.15
YGWIDRS		inactive
YHWSGRLL		inactive
YIAVMILLCHVKHEMSLLII		2.71 ± 0.055
YIFFMDLNYLSSNSITVRAV		1.53 ± 0.074
YIFVALYPSHT		0.443 ± 0.28
YIILCSIFSYWENMGHI		2.78 ± 0.08
YIKCKFF		inactive
YILGKSKSPFLLKCAVKI		inactive
YILMDFSYADLSFVLEIFFA		0.09 ± 0.64
YINQWCTCVT		inactive
YINRKLRDACRRYVFGW		0.05 ± 0.89
YIRATCDSLCVISVWVLRFL		inactive
YISLT		inactive
YIVLAPCWCHIGSIDLAVPH		3.01 ± 0.06
YIVLMSLLFGM		inactive
YKGKWLFCRQMSCEHFFGFF		inactive
YKIMTLYTSCKRFEVHRGCT		inactive
YKRLVSLNVEWALRK		inactive
YLFHLLSDRRCEDMCVVGIK		inactive

Substance	amyloid nucleation score [1]	amyloid nucleation score [2]
YLFHSEGHWRDPHSLPSYLT		inactive
YLGGFLWVWKQFSSCRLVQY		-0.057 ± 0.78
YLGVSILVSSYYWVRVGTGR		inactive
YLHAEYRMCKLIFKMEEFRD		0.276 ± 0.46
YLHYRHYSSVCFYFSSNISN		inactive
YLIMSVSYSASTCLIKMAMV		inactive
YLLDLTTVCAGPWRIPQLMK		inactive
YLLHK		inactive
YLLKCYVMSDRSMSTCVQLE		inactive
YLLNVVYGKEVHMASDFLYG		inactive
YLLVHLAKCIFNWHLSSIEM		-0.109 ± 0.78
YLNSDYSMKFTRWY		1.1 ± 0.12
YLPAHIYMK		inactive
YLRAAIL		inactive
YLSEPGNYRVSNVIGCNRID		inactive
YLSGS		inactive
YLTMLWLFHLRERAALMGLN		inactive
YLVSIRNNYRCEV		inactive
YLWFWQFNTRLGVRRIFWTR		inactive
YLWTTLCKPRVDFRAEYRDL		2.05 ± 0.058
YLYFV		inactive
YMFRFGSTDCEAYV		inactive
YMGILCMGLLNSKW		-0.606 ± 0.76

Substance	amyloid nucleation score [1]	amyloid nucleation score [2]
YMMGKISSPGNLMTMFAVDG		inactive
YMNSVACSEMFSFSGLWEWW		inactive
YMSSYRKEDCGQWLDEWPMA		inactive
YMTGLD		inactive
YMVVFSVNDRMFVPFY		0.926 ± 0.15
YMWKVVDCSPVVSTS		-0.352 ± 1.3
YNDCNIN		inactive
YNDDKYCFDMNCMSPRYRGD		-0.191 ± 0.4
YNDKGTV		inactive
YNFTSFLLIAGNAGSSSSRK		2.04 ± 0.073
YNGLGMIVPMFLVHPLK		inactive
YNLSRHQRTSTSLRCKGQSF		0.241 ± 0.44
YNMSDTVRYHMSQVADCYIV		inactive
YNRMHMDCTKRIE		inactive
YNRYV		inactive
YNSFSDYYSVFTQHVRDS		inactive
YNSIMFNGW		inactive
YNVIT		inactive
YNWIC		inactive
YPCNFYWFRNILADTPIQYD		inactive
YPSCRTSLSARHMVFQGITL		inactive
YPSSPGH		inactive
YQCTKMRLVSFRTVVLVLRG		0.04 ± 0.8

Substance	amyloid nucleation score [1]	amyloid nucleation score [2]
YQLELSSGSM		0.116 ± 0.28
YQLFRFWDVRDSNHSKKIMQ		inactive
YQMTNCSLFFTTLYSVNYDY		2.81 ± 0.082
YRAKNSDRCPGDAYTYFVLR		inactive
YRCDVFFLSVVVDSNFIDKL		2.83 ± 0.079
YRCFLNFIEMIDTCAGDLES		inactive
YRCSRNVENYGPSKRGYYTE		inactive
YRFGDILSVRSLQNFT		inactive
YRIVVVMMAIISTNDNIP		0.371 ± 0.26
YRKMRAEEDKWMVWVYSRRC		inactive
YRKNLRHSLCRNWLYMDCHV		inactive
YRWAFRWRLG		inactive
YRWQLRKKALFFFGKFSVHY		inactive
YRYHIMVMKAVIDTNSRKGW		inactive
YSCFVRHCVDRFVRNDSDQT		inactive
YSCVWNGKWCYYSTANDLS		inactive
YSFECMSH		inactive
YSFLGRNSIISCIR		inactive
YSFRCPGFNYYL		inactive
YSGDSWYVLYVGNPPGDYWR		1.66 ± 0.09
YSGKNLVRSTAGGAVKPVC		inactive
YSGTRVPR		0.471 ± 0.29
YSHWMVRAA		-0.145 ± 0.81

Substance	amyloid nucleation score [1]	amyloid nucleation score [2]
YSIISSYTFEFSKFAVLALL		inactive
YSLGITGPHEAHQIVNLPWW		inactive
YSLLSSMPLIRRRLGLYESW		inactive
YSMQGYRCMYLGDNVAVLAF		inactive
YSNSLRRTSPQEHS		inactive
YSRSTSSEMEAERGSAWLES		inactive
YSSSRLI		inactive
YSVIYDRSYRIV		inactive
YSVPCSWWTLQLGILPLSRR		inactive
YSVVNDSGIFFYVGHHVFAV		inactive
YTDIVSAIEEVF		inactive
YTGYWTGLYYVFMEINGWGS		inactive
YTLYLGCGTNDVWVDAYLYS		inactive
YTRISTIFGYSAMVQFMPCQ		inactive
YTRSCSMRLF		inactive
YVCSDSMLEARVREGTEYRS		-0.259 ± 0.98
YVDLQPITREADDLRALTFM		inactive
YVEHAYIRWRSVCKSIFLFS		inactive
YVGYRFSHFSSGKRSCSYL		inactive
YVHFAN		inactive
YVIMAFLAV		inactive
YVKIDSRFHGVSHFRFHTAY		inactive
YVLSATG		inactive

Substance	amyloid nucleation score [1]	amyloid nucleation score [2]
YVPFNFMKHVIATVLSGV		0.014 ± 0.77
YVRDLGSWMT		inactive
YVTTMFEITRGRSWYSRSLG		0.611 ± 0.21
YVVEICAV		inactive
YVVVCSCAWS		2.63 ± 0.074
YVWMVSYMFLDFLDSTLALP		inactive
YVYESFGWVSGNFKVWF		inactive
YWDDSMKYDLKMVERSVGGK		inactive
YWGKRSF		inactive
YWKFWIKSDVYCRSISGWCR		inactive
YWNIMIGYLLKSTGSGRSA		inactive
YWSCRWGLVLVS		inactive
YWTANTDYTNVIGYKNTYVH		-0.337 ± 0.33
YWYYGCGSVGFAIRPWMSGI		1.58 ± 0.11
YYFLDRGGITSTIFRLLCPF		inactive
YYFLLIGSW		inactive
YYGGVLVSHRKPSGVCYGYG		inactive
YYGMMYEGGYAVIDIGLGHL		inactive
YYIPFASFVSQTCY		inactive
YYLSFVKKCNDSEVIWTKSV		inactive
YYLVSHWWFGQCFDHVVS		inactive
YYPLLIPLY		inactive
YYWMAWRTLGAVRAG		-0.458 ± 0.5
